US20200247894A1 (Regeneron, published 2020)

Key:
[1] = molecular target: T1, D2 domain of human IL2Rγ extracellular domain expressed with a C-terminal myc-myc-hexahistidine tag (human); assay: SPR, mAb captured on anti-hFc, 25 C
T1 construct: also called human IL2Rγ domain 2
T1 chain: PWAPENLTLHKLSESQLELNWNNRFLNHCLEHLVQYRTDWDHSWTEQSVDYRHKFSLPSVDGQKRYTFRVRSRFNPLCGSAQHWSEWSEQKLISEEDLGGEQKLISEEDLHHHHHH
Summary of the method: (§1)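 Anti-IL2Rγ antibodies held on an anti-human Fc capture surface with receptor binding to them.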

[2] = molecular target: T2, human IL2Rγ (endogenously expressed on cells) (human, UniProt P31785 23-369); assay: cell-based or functional assay
T2 sequence (looked up): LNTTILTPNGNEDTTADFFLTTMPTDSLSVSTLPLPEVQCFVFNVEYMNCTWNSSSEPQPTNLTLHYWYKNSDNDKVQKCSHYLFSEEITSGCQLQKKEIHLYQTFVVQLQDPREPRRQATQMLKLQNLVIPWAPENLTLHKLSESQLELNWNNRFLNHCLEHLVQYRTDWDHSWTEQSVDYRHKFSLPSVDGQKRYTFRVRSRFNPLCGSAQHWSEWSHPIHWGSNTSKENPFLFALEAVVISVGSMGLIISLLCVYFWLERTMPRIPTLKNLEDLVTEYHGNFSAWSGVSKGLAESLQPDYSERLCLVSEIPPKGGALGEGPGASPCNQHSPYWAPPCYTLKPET

[3] = molecular target: T2, human IL2Rγ (endogenously expressed on …); assay: cell-based or functional assay; remark: listed apart in the source
[4] = molecular target: T2, human IL2Rγ (endogenously expressed on …); assay: cell-based or functional assay; remark: listed apart in the source
[5] = molecular target: T1, D2 domain of human IL2Rγ extracellular …; assay: SPR, mAb captured on anti-hFc, 37 C
Summary of the method: as §1

[6] = molecular target: T3, D1 domain of human IL-2Rγ extracellular domain expressed with a C-terminal myc-myc-hexahistidine tag (human); assay: SPR, mAb captured on anti-hFc, 37 C
T3 construct: also called human IL2Rγ domain 1
T3 chain: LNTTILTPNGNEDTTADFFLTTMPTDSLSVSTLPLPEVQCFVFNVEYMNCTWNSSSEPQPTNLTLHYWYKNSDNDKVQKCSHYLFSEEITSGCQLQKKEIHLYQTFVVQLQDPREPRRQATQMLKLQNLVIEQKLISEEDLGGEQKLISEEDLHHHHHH
Summary of the method: (§2)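 KD and dissociative half-life come from rate constants obtained by 1:1 binding-model fits of real-time sensorgrams. Antibodies sit on an anti-human Fc capture surface, with HBS-ET (pH 7.4) as running buffer and an 8-10 minute dissociation phase.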

[7] = molecular target: T3, D1 domain of human IL-2Rγ extracellular …; assay: SPR, mAb captured on anti-hFc, 25 C
Summary of the method: as §2

[8] = molecular target: T3, D1 domain of human IL-2Rγ extracellular …; assay: SPR, mAb captured on anti-hFc, 25 C; 25 C
Description: Equilibrium dissociation constants (KD values) for IL-2Rγ binding to purified anti-IL2Rγ monoclonal antibodies were determined using a Biacore 4000 instrument equipped with a real-time surface plasmon resonance biosensor. All binding studies were performed in 10 mM HEPES, 150 mM NaCl, 3 mM EDTA, and 0.05% v/v Surfactant Tween-20, pH 7.4 (HBS-ET) running buffer at 25° C. and 37° C. The Biacore sensor surface was first derivatized by amine coupling with a monoclonal mouse anti-human Fc antibody (GE, # BR-1008-39) to capture anti-IL2Rγ monoclonal antibodies.
The dissociation of monoclonal antibody bound IL2Rγ reagents were monitored for 8-10 minutes in HBS-ET running buffer. Kinetic association (kₐ) and dissociation (kd) rate constants were determined by fitting the real-time sensorgrams to a 1:1 binding model using Scrubber 2.0c curve fitting software. Binding dissociation equilibrium constants (KD) and dissociative half-lives (t_{1/2}) were calculated from the kinetic rate constants as: […]

Row | Binder | 100 nM Ag Bound [1] [RU] | binding result [1] | IC50; IL-2 (10 nM)-induced STAT phosphorylation, human CD4+ T cells [2] [nM] | IC50; IL-4 (50 pM)-induced STAT phosphorylation, human CD4+ T cells [2] [M] | IC50; IL-7 (1 pM)-induced STAT phosphorylation, human CD4+ T cells [2] [M] | IC50; IL-15 (0.5 nM)-induced STAT phosphorylation, human CD4+ T cells [2] [nM] | IC50; IL-21 (50 pM)-induced STAT phosphorylation, human CD4+ T cells [2] [M] | IC50; IL-2 30 pM; NK92/hIL7R/STAT3-luc [3] [M] | IC50; IL-4 250 pM; Ramos.2G6.4C10/STAT3-luc [3] [M] | IC50; IL-7 50 pM; NK92/hIL7R/STAT3-luc [3] [M] | IC50; IL-9 20 pM; NK92/hIL7R/STAT3-luc [3] [M] | IC50; IL-15 60 pM; NK92/hIL7R/STAT3-luc [3] [M] | IC50; IL-21 5 pM; NK92/hIL7R/STAT3-luc [3] [M] | Max Inhibition (%); IL-2 30 pM; NK92/hIL7R/STAT3-luc [3] [%] | Max Inhibition (%); IL-4 250 pM; Ramos.2G6.4C10/STAT3-luc [3] [%] | Max Inhibition (%); IL-7 50 pM; NK92/hIL7R/STAT3-luc [3] [%] | Max Inhibition (%); IL-9 20 pM; NK92/hIL7R/STAT3-luc [3] [%] | Max Inhibition (%); IL-15 60 pM; NK92/hIL7R/STAT3-luc [3] [%] | Max Inhibition (%); IL-21 5 pM; NK92/hIL7R/STAT3-luc [3] [%] | 100 nM Ag Bound [5] [RU] | further results
1 | H4H12889P (antibody, human IgG4 S228P, kappa, V domains shown, human IgG4; also called REGN7257) VH: EVQLVESGGGLVQPGGSLRLSCAASGFIFSSYEMHWVRQAPGKGLEWISYISSSGTTIYYADSVKGRFTISRDNAKNSLYLHMNSLRAEDTAVYYCTRARITGTFDVFDIWGQGTMVTVSS VL: DIQMTQSPSSLSASVGDRVTITCRASQSISSYLNWYQQKPGKAPKLLIFAASNLQSGVPSRFSGSRSGTDFTLTISSLQPEDFATYYCQQNYNIPYTFGQGTKLEIKR | 0 | no binding (tested: 100 nM) | 2.06 | 1.1e-09 | 8.92e-10 | 2.55 | 2.28e-09 | 2.7e-08 | 1.9e-09 | 3e-09 | 7.1e-09 | 8.5e-09 | > 1e-07 | 81 | 101 | 100 | 100 | 92 | 35 | 0 | IC50; IL-9 (2 nM)-induced STAT3 phosphorylation, in vitro differentiated human mast cells [4]: 0.441 nM; 100 nM Ag Bound [6]: 16 RU; Kd [6]: 20 nM; koff [6]: 0.00507 s⁻¹; kon [6]: 254000 M⁻¹ s⁻¹; t½ [6]: 2.3 min; 100 nM Ag Bound [7]: 38 RU; Kd [7]: 5.34 nM; koff [7]: 0.00107 s⁻¹; kon [7]: 200000 M⁻¹ s⁻¹; t½ [7]: 11 min
2 | H4H12926P2 (antibody, human IgG4 S228P, kappa, V domains shown, human IgG4) VH: QVQLQQSGPGLVKPSQTLSLTCAISGDSVSSNIAAWNWIRLSPSRGLEWLGRTFFRSTWFYDYSLSVKGRITINPDTSKNQFSLHLNSVTPEDAAVYYCARTGRRWSLDYWGQGTLVTVSS VL: not shown | 0 | no binding (tested: 100 nM) | – | – | – | – | – | – | – | – | – | – | – | – | – | – | – | – | – | 0 | Kd [8]: 195 nM; koff [8]: 0.0273 s⁻¹; kon [8]: 140000 M⁻¹ s⁻¹; t½ [8]: 0.4 min
3 | H4H12922P2 (antibody, human IgG4 S228P, kappa, V domains shown, human IgG4; also called REGN7256) VH: QVQLVESGGGVVKPGGSLRLSCAASGFTFSNSGIHWVRQAPGKGLEWVALISYAGSNKYYADSVKGRFTISRDNSKNTLSLQMNSLRAEDTAVYYCAKEVWTGTYDSFDMWGRGTMVTVSS VL: not shown | 2 | no binding (tested: 100 nM) | 1.87 | 8.54e-10 | 5.8e-10 | 2.46 | 2.21e-09 | 1.6e-08 | 1.3e-09 | 2.6e-09 | 3.1e-09 | 9.3e-09 | > 1e-07 | 85 | 100 | 98 | 99 | 91 | 49 | 3 | IC50; IL-9 (2 nM)-induced STAT3 phosphorylation, in vitro differentiated human mast cells [4]: 0.416 nM; 100 nM Ag Bound [6]: 26 RU; Kd [6]: 4.13 nM; koff [6]: 0.00168 s⁻¹; kon [6]: 407000 M⁻¹ s⁻¹; t½ [6]: 7 min; 100 nM Ag Bound [7]: 50 RU; Kd [7]: 3.32 nM; koff [7]: 0.000839 s⁻¹; kon [7]: 252000 M⁻¹ s⁻¹; t½ [7]: 14 min
